Values quoted from earlier work as cited in article PMC8880779 (International Journal of Molecular Sciences, 2022).

Assays:
[1] = test system: mouse model of AD; parameters: method as in PMID 29164613
[2] = test system: cell-based AD model; parameters: method as in PMID 23519124

B1: CaM-like skin protein: present at concentrations ranging between 3 and 6 nM in the human cerebrospinal fluid (protein, UniProt Q9NZT1 2-146, looked up)
Calmodulin-like protein 5: AGELTPEEEAQYKKAFSAVDTDGNGTINAQELGAALKATGKNLSEAQLRKLISEVDSDGDGEISFQEFLTAAKKARAGLEDLQVAFRAFDQDGDGHITVDELRRAMAGLGQPLPQEELDAMIREADVDQDGRVNYEEFARMLAQE
- protection against spatial learning impairment [1]: affords efficient protection against spatial learning impairment
- inhibition of neuronal death [2]: inhibits neuronal death in a cell-based AD model
